Results on seven molecules are retold here after patent publication US6737058B2, “Methods for inhibiting endothelial cell and fibrinogen mediated inflammation using fibrinogen specific antibodies” (The Scripps Research Institute, priority 1992, dated 2004).

No end group written: not given here.

In one assay the target is ICAM-1 (Homo sapiens, UniProt P05362). The assay can be described thus: 125I-labeled γ3 binding to ICAM-1 CHO transfectants. On the procedure:
A variant polypeptide γ3 (KYG-γ3) duplicating the fibrinogen γ chain sequence 117-133 N^117NQKIVNLKEKVAQLEA^133 (SEQ ID NO 2) was synthesized with the addition of Lys-Tyr-Gly residues at the amino terminus to facilitate radiolabeling of the polypeptide (KYGN^117NQKIVNLKEKVAQLEA^133, SEQ ID NO 4). The variant γ3 and L10 polypeptides were synthesized as described in Example 7A. Typically, 2 mg of KYG-γ3 were iodinated with 5 mCi ^125I-Na (Amersham, Arlington Heights, Ill.) by the IODO-GEN method (Fraker et al., Biochem Biophys Res Commun., 80:849-857, (1978)) for 45 min at 4° C. Free radioactivity was separated from polypeptide-bound radioactivity by gel-filtration over a Bio-Gel P-2 column (Bio-Rad, Richmond, Va.) which had been preequilibrated with PBS, pH 7.2, containing 0.01% BSA, with a flow rate of 0.2 ml/sec.
Confluent monolayers of ICAM-1 CHO transfectants or wild type (WT) CHO cells were incubated in serum-free RPMI 1640 medium with increasing concentrations of ^125I-labeled γ3 peptide (10-150 μg/ml) in the presence of 1 mM CaCl2 and 1 mM MgCl2 for 45 min at 22° C. Cells were washed with three rapid changes of serum-free RPMI 1640, solubilized in 10% SDS, and radioactivity associated under the various conditions tested was quantitated in a beta-counter. […]

A further assay deals with WT CHO cells. The assay can be described thus: 125I-labeled γ3 binding to wild type CHO cells. Details: species or system Chinese Hamster. The settings on record: 50 μg/ml. As for the experimental part:
Confluent monolayers of ICAM-1 CHO transfectants or wild type (WT) CHO cells were incubated in serum-free RPMI 1640 medium with increasing concentrations of ^125I-labeled γ3 peptide (10-150 μg/ml) in the presence of 1 mM CaCl2 and 1 mM MgCl2 for 45 min at 22° C. Cells were washed with three rapid changes of serum-free RPMI 1640, solubilized in 10% SDS, and radioactivity associated under the various conditions tested was quantitated in a beta-counter. Non specific binding was assessed in the presence of a 100-fold molar excess unlabeled γ3 peptide, or control peptide L10 added at the start of incubation, and was subtracted from the total as described above.

In assay [1] the target is T1, ICAM-1 receptor on JY lymphocytes (Homo sapiens, UniProt P05362).
T1 construct: endogenous in cells; host or cells: JY lymphocytes (51Cr-labelled)
The assay can be described thus: Inhibition of JY lymphocyte adhesion to γ3-coated plates by monoclonal antibodies. The settings on record: plates coated with 20 μ/ml peptide, no antibody. It is filed as cell-based. On the procedure:
Binding inhibition assays were performed using radiolabeled ICAM-1^+ JY lymphocytes and the γ3 polypeptide. […] The peptides used in this assay were the γ3 and irrelevant polypeptide L10 prepared as described in Example 7A.
Ninety-six well assay plates were coated with 20 μ/ml of the polypeptides γ3 and L10 and the ^51Cr-labeled JY lymphocytes were prepared as described above. The ^51Cr-labeled JY lymphocytes were preincubated with saturating concentrations (25 μg/ml) of monoclonal antibodies anti-ICAM-1 1G12, 2D5, or 6E6; or anti-EPR-1 6A11 before incubation in the […] plates. Binding of radiolabelled JY lymphocytes was measured after a 45 min maintenance period in the presence of the monoclonal antibodies in the γ3 peptide-coated plate. Background binding was assessed by the incubation of ^51Cr-labeled JY lymphocytes which had not been preincubated with a monoclonal antibody in the L10 peptide-coated plate. Data are the mean ± S.D. of replicates of two independent experiments.

In a further assay the test system is ICAM-1+ JY lymphocytes. The assay can be described thus: Adhesion of 51Cr-labeled JY lymphocytes to peptide-coated wells. The class given is cell-based. The settings on record: wells coated with 1-100 μg/ml peptide, 45 min at 37° C. On the procedure: Ninety-six well assay plates (Costar, Cambridge, Mass.) were coated with increasing concentrations (1-100 μg/ml) of the polypeptides γ3 and L10 in PBS, pH 7.2, for 18 h at 4° C. Wells were washed in PBS, pH 7.2 and blocked with 3% gelatin for 60 min at 37° C.
Serum-free suspensions of JY lymphocytes were labeled with 0.5 mCi ^51Cr (Na2CrO4, specific activity 487.4 mCi/mg, E. I., DuPont de Nemours, Wilmington, Del.) for 2 h at 37° C., with a final incorporation of 0.2-4 cpm/cell (Languino, et al., supra). Aliquots of ^51Cr-labeled JY lymphocytes at 1×10^6/ml were added to peptide-coated wells for 45 min at 37° C., washed, solubilized in 20% SDS, and radioactivity associated under the various conditions was determined in a scintillation beta-counter. The number of attached cells was quantitated by dividing the cpm harvested by the cpm/cell. Data are the mean ± S.D. of two independent experiments.

For assay [2], the system named is HUVEC. Kind of assay: Adhesion of terminally-differentiated 51Cr-labeled HL-60 cells to resting HUVEC with plasma adhesive proteins. It is filed as cell-based, human. Particulars: for adhesion of differentiated HL-60 cells to HUVEC relative to cells not equilibrated with an adhesive protein: 150 μ/ml protein, fMLP 10 μM, 30 min at 22° C. As for the experimental part: The effect of fibrinogen, vitronectin, and fibronectin on the interaction of terminally-differentiated HL-60 and monocytic THP-1 cells with HUVEC was determined as described in Languino, supra. Briefly, serum-free suspensions of HL-60 or THP-1 cells were labeled with ^51Cr as described in Example 81A to a final incorporation of 0.2-4 cpm/cell. After washes in PBS, pH 7.2, aliquots of the HL-60 cells were resuspended in serum-free RPMI 1640 at 1.5×10^6/ml and stimulated with 10 μM of the chemoattractant formyl-methionyl-leucyl-phenylalanine (fMLP, Sigma, St. Louis, Mo.) and equilibrated with 150 μ/ml fibrinogen, vitronectin, or fibronectin in the presence of 1 mM CaCl2 for 20 min at 22° C. Equilibrated HL-60 were added to resting HUVEC monolayers that had been previously incubated with fresh complete culture medium 12 hours prior to the experiment and incubated for an additional 30 min at 22° C., washed,solubilized in 10-20% SDS, and associated radioactivity determined in a scintillation β-counter. The number of attached cells was quantitated by diving the cpm harvested by the cpm/cell. Under these experimental conditions, there was no aggregation of the various leukocyte subpopulations in the presence of the different plasma adhesive proteins, nor disruption of the HUVEC monolayers at any time interval tested, as judged by routine microscopic examination of the adhesion field. Data are the mean ± S.D. of triplicates from a representative experiment.
Experimental conditions were the same as described in Example 9C1 except that the ^51Cr-labeled HL-60 cells were equilibrated with 40 μg/ml vitronectin or control protein transferrin and added to resting HUVEC for increasing time intervals between 10 and 60 minutes at 22° C. before measurement of leukocyte adhesion.
Experimental conditions were the same as described in Example 9C1 except that the ^51Cr-labeled HL-60 cells were equilibrated with several concentrations of vitronectin ranging from 1.84 to 150 μg/ml and prior to incubation to resting HUVEC.

Assay [3] has as its system HUVEC. The assay can be described thus: Iodinated D30 binding to HUVEC monolayers and its competition. On the set-up: species or system human. Particulars: 50 fold molar excess of cold fibrinogen; myoglobin as nonspecific protein. On the procedure:
Binding assays described above in Example 3A2) were also performed with the fibrinogen homolog, D30, to determine if that region of fibrinogen also immunoreacted with HUVEC. Since D30 was known to bind to leukocytes via the Mac-1 receptor as described by Altieri et al., J. Biol. Chem., 265:12119-12122 (1990), these experiments were performed to determine if regions of fibrinogen mediating the binding of leukocytes to HUVEC are contained within the D30 fragment. For this analysis, the D30 fragment of fibrinogen prepared in Example 1B was labelled with ^125I as described for labelling of fibrinogen above. Iodinated D30 was admixed to HUVEC monolayers at a concentration of 10 μg/ml to form a binding complex. After washing the cells to remove the unbound D30 as described in Example 3A2) above, the cells were solubilized and the amount of bound radioactivity was determined. The binding of D30 to HUVEC was maximal at 120 minutes of the maintenance period with approximately 60,000 cpm.

For assay [4], the system named is HUVEC. The assay can be described thus: Inhibition of 125I-labelled fibrinogen binding to HUVEC by cold fibrinogen, anti-VNR antibodies and RGD/RGE peptides. On the set-up: species or system human. The settings on record: anti-VNR antibody 25 μg/ml, 20 minutes at 37° C. preincubation. As for the experimental part: Binding of ^125I-labelled fibrinogen binding to HUVEC assays were performed in the presence of 50 molar excess of unlabelled fibrinogen in order to confirm the specificity of binding as shown in Example 3A. The binding assay was performed as described in Example 3A with the exception that unlabelled fibrinogen was admixed to HUVEC at a 50 molar excess (approximately […] fibrinogen) concurrently with 50 μg/ml of ^125I-labelled fibrinogen. The protein-cell admixtures were maintained at 22° C. for 30 minutes to allow for binding of fibrinogen to HUVEC. In addition to cold fibrinogen, a 50 fold molar excess of BSA was separately admixed as a control. The amount of fibrinogen bound under the above conditions was quantitated as described in Example 3A. The uninhibited total binding of ^125I-labelled fibrinogen saturated after 30 minutes at approximately 4000 cpm per well. […] The binding of fibrinogen to the HUVEC surface fibrinogen receptor is therefore specific.
The specificity of binding to an RGD-independent fibrinogen receptor was confirmed in competition assays performed as described above in the presence of monoclonal antibodies against the beta subunit of the RGD-dependent VNR and in the presence of RGD-containing peptides. For the assays in which the ability of anti-VNR monoclonal antibodies, designated mAb 609 and mAb 7E3, to inhibit the binding of ^125I-labelled fibrinogen to HUVEC, the antibodies were separately maintained at a concentration of 25 μg/ml with HUVEC for 20 minutes at 37° C. After the maintenance period, the antibody-treated HUVEC were washed once with serum-free RPMI 1640 to remove any unbound antibody. Labelled fibrinogen was then admixed to the treated HUVEC at a concentration of 50 μg/ml in the presence of 2.5 mM CaCl2 and […] PPack. The resultant admixtures were maintained for 10-30 minutes at 22° C. The fibrinogen-treated HUVEC were then washed, solubilized and counted as described in Example 3A.
To confirm that the fibrinogen binding site on HUVEC was not RGD dependent, inhibition assays performed as described above for inhibiting with antibodies except that they were done in the presence of 1.0 mM of an RGD-containing peptide. A control RGE-containing peptide was also included in the assay. At selected time points over the time course of one hour, the HUVEC were harvested as described in Example 3A.

Sequence of ICAM-1 (P05362 28-532): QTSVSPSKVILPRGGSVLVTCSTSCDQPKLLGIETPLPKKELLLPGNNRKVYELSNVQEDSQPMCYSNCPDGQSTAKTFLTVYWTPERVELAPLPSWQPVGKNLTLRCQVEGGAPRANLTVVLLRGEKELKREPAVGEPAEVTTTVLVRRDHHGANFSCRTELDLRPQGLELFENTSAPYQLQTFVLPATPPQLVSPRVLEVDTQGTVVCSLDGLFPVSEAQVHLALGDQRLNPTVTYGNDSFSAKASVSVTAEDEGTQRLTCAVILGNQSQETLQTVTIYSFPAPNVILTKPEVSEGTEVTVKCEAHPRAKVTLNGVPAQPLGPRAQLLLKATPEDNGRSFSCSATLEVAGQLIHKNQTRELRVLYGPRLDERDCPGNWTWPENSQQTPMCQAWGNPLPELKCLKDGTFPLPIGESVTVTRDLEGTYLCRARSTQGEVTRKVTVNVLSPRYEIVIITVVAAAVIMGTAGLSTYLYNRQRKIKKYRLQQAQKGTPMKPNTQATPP
T1 sequence (P05362 28-532): as above

As to “KYGN^117NQKIVNLKEKVAQLEA^133 (KYGNNQKIVNLKEKVAQLEA; also: 125I radiolabel) [KYG-γ3]”, the “binding of 125I-labeled γ3 polypeptide to ICAM-1 CHO transfectants” value in the assay with ICAM-1 (10-150 μg/ml, 1 mM CaCl2 and 1 mM MgCl2, 45 min at 22° C.) was “bound to ICAM-1 CHO transfectants in a specific and dose-dependent fashion”. Further, in the assay on WT CHO cells, the “binding of 125I-labeled γ3 polypeptide to WT CHO cells” value was “did not bind”.
“LGGAKQAGDV (OTHER INFORMATION: synthesized) [L10, reference compound]”: in assay [1], the “JY lymphocyte adhesion to L10-coated plate (background)” value is on record as “did not support significant JY lymphocyte adhesion”. In addition, in the assay on ICAM-1+ JY lymphocytes, the “adhesion of JY lymphocytes to immobilized peptide” value was “did not support lymphocyte adhesion at any concentration tested”.
Turning to “NNQKIVNLKEKVAQLEA (OTHER INFORMATION: synthesized) [γ3]”, the “adhesion of JY lymphocytes to immobilized peptide” value with ICAM-1+ JY lymphocytes is listed as “strongly adhered”. Also, the “competition of 125I-labeled γ3 polypeptide binding” value with ICAM-1 (100-fold molar excess unlabeled peptide) is given as “competitively inhibited”.
In the case of fibronectin, the “adhesion of differentiated HL-60 cells to HUVEC relative to cells not equilibrated with an adhesive protein” value in the assay on HUVEC [2] was “did not result in an increase in adhesion”.

B1: Myoglobin: a nonspecific protein (protein, UniProt P68082 2-154, looked up)
Myoglobin: GLSDGEWQQVLNVWGKVEADIAGHGQEVLIRLFTGHPETLEKFDKFKHLKTEAEMKASEDLKKHGTVVLTALGGILKKKGHHEAELKPLAQSHATKHKIPIKYLEFISDAIIHVLHSKHPGDFGADAQGAMTKALELFRNDIAAKYKELGFQG
Turning to B1, in the assay on HUVEC [3], the “competition of D30 binding to HUVEC” value is “did not inhibit”.

B2: mAb 609: anti-VNR monoclonal antibody (antibody, V domains shown)
VH: EVQLEESGGGLVKPGGSLKLSCAASGFAFSSYDMSWVRQIPEKRLEWVAKVSSGGGSTYYLDTVQGRFTISRDNAKNTLYLQMSSLNSEDTAMYYCARHNYGSFAYWGQGTLVTVSA
VL: ELVMTQTPATLSVTPGDSVSLSCRASQSISNHLHWYQQKSHESPRLLIKYASQSISGIPSRFSGSGSGTDFTLSINSVETEDFGMYFCQQSNSWPHTFGGGTKLEIKRA
Take B2: the “inhibition of 125I-labelled fibrinogen binding to HUVEC (FIG. 7)” value in the assay on HUVEC [4] is on record as “no inhibitory effect”.

B3: vitronectin: human vitronectin purchased from GIBCO or donated (protein, UniProt P04004 20-478, looked up)
Vitronectin: DQESCKGRCTEGFNVDKKCQCDELCSYYQSCCTDYTAECKPQVTRGDVFTMPEDEYTVYDDGEEKNNATVHEQVGGPSLTSDLQAQSKGNPEQTPVLKPEEEAPAPEVGASKPEGIDSRPETLHPGRPQPPAEEELCSGKPFDAFTDLKNGSLFAFRGQYCYELDEKAVRPGYPKLIRDVWGIEGPIDAAFTRINCQGKTYLFKGSQYWRFEDGVLDPDYPRNISDGFDGIPDNVDAALALPAHSYSGRERVYFFKGKQYWEYQFQHQPSQEECEGSSLSAVFEHFAMMQRDSWEDIFELLFWGRTSAGTRQPQFISRDWHGVPGQVDAAMAGRIYISGMAPRPSLAKKQRFRHRNRKGYRSQRGHSRGRNQNSRRPSRATWLSLFSSEESNLGANNYDDYRMDWLVPATCEPIQSVFFFSGDKYYRVNLRTRRVDTVDPPYPRSIAQYWLGCPAPGHL
In the case of B3, the “time and dose dependency of vitronectin-mediated increase in HL-60 adhesion” value in the assay with HUVEC [2] (10 to 60 minutes, 1.84 to 150 μg/ml) is “time-and dose-dependent manner”. The “adhesion of differentiated HL-60 cells to HUVEC relative to cells not equilibrated with an adhesive protein” value in the assay with HUVEC [2] is reported as “three to four-fold”. This molecule also gave a vitronectin concentration at which increase in HL-60 adhesion was saturated with HUVEC [2] (vitronectin 1.84 to 150 μg/ml) of 50 µg/mL.
